Test results: patent US20080213812

Test system: Site C binding proteins, HeLa nuclear fraction (HA pool; LBP-1b and LBP-1c/LSF identified by MS) (Homo sapiens)
Experiment: pulldown

Sequence | binding signal (fmol shifted per ug protein) (equivalent OBC column fraction, 6,300 units and 103 ug, four fold less Site C EMSA activity recovered than from Site C column) | binding signal (fmol shifted per ug protein) (oligo affinity column fraction, 25,332 units and 36.7 ug protein, activity assayed by Site C EMSA)
TCGCGGCGAGAGTTTCAGGCAGCGCTGCGT (double strand) [OBC oligo] | 61.2 | –
TCGCGGCGCGAGTTTCAGGCAGCGCTGCGT (double strand) [Site C oligo (hTERT promoter)] | – | 690
